T1: Ac-EQEPEPEPEQE-Am [mCATCH(-)]
T1 construct: Mutant of CATCH(-) with proline in place of the phenylalanine residues
T1 peptide: Ac-EQEPEPEPEQE-NH2

B1: Ac-QQKFKFKFKQQ-Am [CATCH(+)] (peptide)
peptide: Ac-QQKFKFKFKQQ-NH2
notes: Synthetic designed cationic variant of Q11, made by Fmoc solid-phase synthesis; also called CATCH (4+); positive peptide
B2: Ac-QQKPKPKPKQQ-Am [mCATCH(+)] (peptide)
peptide: Ac-QQKPKPKPKQQ-NH2
notes: Mutant of CATCH(+) with proline in place of the phenylalanine residues
B3: Ac-EQEFEFEFEQE-Am [CATCH(-)] (peptide)
peptide: Ac-EQEFEFEFEQE-NH2
notes: Synthetic designed anionic variant of Q11, made by Fmoc solid-phase synthesis; also called CATCH (6-); negative peptide
B4: CATCH-U: uricase fused to a CATCH peptide, expressed in E. coli, purified via nickel affinity chromatography; probably SEQ ID NO: 9 (FIG. 59) (protein)
chain: MAEQEFEFEFEQEGSGGGSGGSGGGGSGGSGEFMSAVKAARYGKDNVRVYKVHKDEKTGVQTVYEMTVCVLLEGEIETSYTKADNSVIVATDSIKNTIYITAKQNPVTPPELFGSILGTHFIEKYNHIHAAHVNIVCHRWTRMDIDGKPHPHSFIRDSEEKRNVQVDVVEGKGIDIKSSLSGLTVLKSTNSQFWGFLRDEYTTLKETWDRILSTDVDATWQWKNFSGLQEVRSHVPKFDATWATAREVTLKTFAEDNSASVQATMYKMAEQILARQQLIETVEYSLPNKHYFEIDLSWHKGLQNTGKNAEVFAPQSDPNGLIKCTVGRSSLKSKLLEHHHHHH

The conditions of series [1]: literature value (ref. 7); cited from earlier work.
The nature of series [2]: Circular dichroism: concentration-dependent transition from random coil to β-sheet. Format: physicochemical. The following applies: equimolar mixture of CATCH peptides in 1x PBS, ellipticity at 212 nm. As for the experimental part:
Circular Dichroism. Circular Dichroism was performed on an AVIV 202 spectrometer. Peptides were prepared in 1x PBS at 500 μM, unless stated otherwise. Samples were run 3 times, averaged, and converted to mean residue ellipticity. All data reported was for dynode values <500 V.
(§1) Nanofiber preparation. Stock solutions of CATCH(−) and CATCH(+) were prepared by dissolving lyophilized peptides in 1x PBS to a final concentration of 500 μM. Peptide concentration was confirmed using Phe absorbance (λ=260 nm). CATCH peptides were then mixed at a 1:1 (v/v) ratio and incubated overnight for formation of nanofibers, unless stated otherwise.

Series [3] is described as follows: Protein incorporation and retention in macroscopic hydrogels under excess PBS. Format: physicochemical. The procedure:
Macroscopic Hydrogel Formation. A 12 mM stock solution of CATCH(−) was prepared by dissolving dry peptide in 1x PBS and adjusting the pH to ˜7.6 with ammonium bicarbonate (Fisher). A 12 mM stock solution of CATCH(+) was prepared by dissolving dry peptide in 1X PBS and adjusting the pH to ˜7.2 with hydrochloric acid (0.5 N Fisher). CATCH peptide stock solutions were combined at a 1:1 (v/v) ratio in a 0.2 mL glass vial (Thermo), and the vial was gently swirled for 2 min until the hydrogel formed. The hydrogel was stained with red food coloring to aid visualization. Hydrogel images were recorded using a digital still camera.
Protein Incorporation into Macroscopic Hydrogels. […] Immediately after hydrogel formation, fluorescence was visualized by placing the glass vials on a SafeImager 2.0 transilluminator (Invitrogen) and recording images with a digital still camera. […] At various time points, fluorescence in the buffer supernatant was visualized by placing the glass vials on a SafeImager 2.0 transilluminator (Invitrogen) and recording images with a digital still camera. At the end-point, buffer supernatant was carefully removed by decanting and fluorescence was visualized by placing the glass vials on a SafeImager 2.0 transilluminator (Invitrogen) and recording images with a digital still camera.

Series [4] addresses T1, Ac-EQEPEPEPEQE-Am [mCATCH(-)]. Description: ThT fluorimetry, equimolar mixture. The procedure: (§2) Thioflavin T (ThT) Assay. A ThT stock solution containing 0.8 mg/mL of thioflavin T (Acros) in 1x phosphate-buffered saline (PBS) (137 mM NaCl, 2.7 mM KCl, 10 mM Na₂HPO₄ and 1.8 mM KH₂PO₄, pH 7.4) was filtered through a 0.22 μm syringe filter (Millex), and further diluted 1:10 with 1x PBS to create a working solution. Peptide samples were mixed with the ThT working solution at a 1:10 (v/v) ratio, added to a black 96-well plate (Corning), and analyzed with a Molecular Devices SpectraMax M3 spectrophotometer (excitation 450, emission 482 nm). All samples were run in triplicate, with the mean and standard deviation of these samples reported.
as §1

Series [5] concerns the molecule itself. In words: ThT fluorimetry, TEM, CD and fluorescence microscopy of the peptide alone.
The target of series [6] is T1, Ac-EQEPEPEPEQE-Am [mCATCH(-)]. Description: ThT fluorimetry, kinetic, equimolar mixture.
Series [7] has as its target B2. In words: ThT fluorimetry, equimolar mixture. The procedure:
as §2, §1

Series [8] can be described thus: Dissolution of monosodium urate (MSU) crystals in vitro. Particulars: 12.6 ug soluble CATCH-U, 0.5 mg MSU crystals, 2250 U/mL catalase, 96 hours, density at 293 nm. Format: biochemical. The procedure:
The enzymatic activity of CATCH-U in soluble and gel form was evaluated by measuring uric acid depletion over time via absorbance at 293 nm and 37° C. for varying concentrations of uric acid substrate. Hydrogels were left to incubate at 37° C. for 4 days with substrate removed and replenished daily to determine if the gels remain active over this timeframe. Gels were also incubated with monosodium urate (MSU) crystals.
Soluble CATCH-U activity in dissolving MSU crystals was assessed by incubating 12.6 ug soluble CATCH-U with 0.5 mg MSU crystals and 2250 U/mL catalase for 96 hours (FIG. 60). MSU crystal density was determined at 293 nm compared to a standard curve of crystals. […] Brightfield images, scale bar=[…].
The hydrogel creates a concentration gradient sufficient to dissolve crystallized uric acid in the form of monosodium urate (MSU) crystals (FIGS. 58 and 61). […] MSU crystals appear as white flakes while the background is black. The gel is the white mass on the right. […] A similar experiment was performed with lOuL hydrogels comprising 3.17 ug CATCH-U and incubated with 1 g/L MSU crystals for 24 hours (FIG. 61). […] Polarized, phase contrast images, scale bar=500 μm.

Regarding “Ac-QQKFQFQFEQQ-Am (Ac-QQKFQFQFEQQ-NH2) [Q11]”, the “Concentration at which the peptide self-assembles into β-sheet nanofibers” value in series [1] was around 10 µM.

Regarding “CATCH peptides: equimolar mixture of CATCH(+) and CATCH(−) peptides that co-assemble into β-sheet nanofibers (Ac-QQKFKFKFKQQ-NH2; not fully specified)”, in series [2], the β-sheet fibrillization concentration entry was “about 300 μM”.

With “CATCH(−)GFP: recombinant fusion of CATCH(−) and superfolder green fluorescent protein (GFP)”, the “Fluorescence of hydrogel after incubation under excess 1x PBS” value in series [3] (CATCH hydrogels formed in presence of the fusion protein, 48 h) was “retained their fluorescence”. The “GFP in the buffer layer over the hydrogels” value in series [3] (excess 1x PBS, up to 48 h) is “no GFP was detected”.

For B1, the binding result in series [4] and in series [5] was “no binding” each time.

As to B2, the binding result in series [6] is listed as “no binding”.

Take B3: the binding result in series [7] and in series [5] was “no binding” throughout.

B4: the “MSU crystal amount over time” value in series [8] is “steady and significant decrease”.

Source of the values: patent publication US20230374471A1, “SELF-ASSEMBLING URICASE FUSION PEPTIDES” (University of Florida Research Foundation, Incorporated, priority 2020, published 2023).
